Paper PMC3961177, “Photoactivated UVR8-COP1 Module Determines Photomorphogenic UV-B Signaling Output in Arabidopsis” (PLoS Genetics, 2014)

Experiments:
[1] = biological target: T1, LexA fused wild-type UVR8 (UV … LOCUS 8) (Arabidopsis thaliana), Q9FN03; assay: SDS-PAGE of unboiled extracts with immunoblot; total protein extracts of yeast EGY48 expressing LexA-UVR8, kept on ice under −UV-B or +UV-B for 20 min, loaded without boiling, anti-LexA immunoblot; conditions: remark: other sources report otherwise
T1 chain: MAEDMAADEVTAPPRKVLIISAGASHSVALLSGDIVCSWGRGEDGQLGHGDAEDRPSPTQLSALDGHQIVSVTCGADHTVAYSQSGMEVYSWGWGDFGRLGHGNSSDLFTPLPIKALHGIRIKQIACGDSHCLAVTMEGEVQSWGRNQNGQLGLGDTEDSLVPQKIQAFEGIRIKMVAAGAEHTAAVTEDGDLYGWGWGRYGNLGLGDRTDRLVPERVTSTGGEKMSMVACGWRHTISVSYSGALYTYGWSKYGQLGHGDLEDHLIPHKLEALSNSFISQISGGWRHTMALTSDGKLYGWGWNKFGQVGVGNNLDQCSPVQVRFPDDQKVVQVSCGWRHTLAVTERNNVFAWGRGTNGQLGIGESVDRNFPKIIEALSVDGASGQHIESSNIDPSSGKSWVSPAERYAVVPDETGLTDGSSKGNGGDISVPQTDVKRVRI

[2] = biological target: the molecule itself; assay: as above
[3] = biological target: the molecule itself; assay: SDS-PAGE of unboiled extracts with immunoblot; total protein extracts of 4-day-old transgenic seedlings grown under −UV-B or +UV-B, extracts kept on ice under the same condition for 30 min, loaded without boiling, anti-GFP immunoblot
[4] = biological target: T2, YFP-UVR8^WT (proUVR8-YFP-UVR8/uvr8-6) (Arabidopsis thaliana), Q9FN03; assay: as above; conditions: remark: other sources report otherwise
T2 chain: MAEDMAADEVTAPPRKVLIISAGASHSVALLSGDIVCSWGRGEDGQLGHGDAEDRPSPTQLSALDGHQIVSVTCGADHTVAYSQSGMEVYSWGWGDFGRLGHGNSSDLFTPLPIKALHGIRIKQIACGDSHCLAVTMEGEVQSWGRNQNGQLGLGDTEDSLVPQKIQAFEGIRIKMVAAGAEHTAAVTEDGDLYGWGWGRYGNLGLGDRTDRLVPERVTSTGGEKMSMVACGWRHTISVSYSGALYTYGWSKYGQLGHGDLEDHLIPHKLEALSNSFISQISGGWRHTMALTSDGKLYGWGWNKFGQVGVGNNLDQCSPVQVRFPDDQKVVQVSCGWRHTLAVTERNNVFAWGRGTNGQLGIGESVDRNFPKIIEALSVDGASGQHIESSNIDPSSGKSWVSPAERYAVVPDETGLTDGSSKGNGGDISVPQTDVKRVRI

B1: LexA fused wild-type UVR8 (UV … LOCUS 8), Q9FN03 1-440 (natural protein)
chain: MAEDMAADEVTAPPRKVLIISAGASHSVALLSGDIVCSWGRGEDGQLGHGDAEDRPSPTQLSALDGHQIVSVTCGADHTVAYSQSGMEVYSWGWGDFGRLGHGNSSDLFTPLPIKALHGIRIKQIACGDSHCLAVTMEGEVQSWGRNQNGQLGLGDTEDSLVPQKIQAFEGIRIKMVAAGAEHTAAVTEDGDLYGWGWGRYGNLGLGDRTDRLVPERVTSTGGEKMSMVACGWRHTISVSYSGALYTYGWSKYGQLGHGDLEDHLIPHKLEALSNSFISQISGGWRHTMALTSDGKLYGWGWNKFGQVGVGNNLDQCSPVQVRFPDDQKVVQVSCGWRHTLAVTERNNVFAWGRGTNGQLGIGESVDRNFPKIIEALSVDGASGQHIESSNIDPSSGKSWVSPAERYAVVPDETGLTDGSSKGNGGDISVPQTDVKRVRI
For B1, the stoichiometry N [1] was 2.

B2: LexA fused UVR8^W285F (natural protein, Arabidopsis thaliana, UniProt Q9FN03 1-440, looked up)
chain: MAEDMAADEVTAPPRKVLIISAGASHSVALLSGDIVCSWGRGEDGQLGHGDAEDRPSPTQLSALDGHQIVSVTCGADHTVAYSQSGMEVYSWGWGDFGRLGHGNSSDLFTPLPIKALHGIRIKQIACGDSHCLAVTMEGEVQSWGRNQNGQLGLGDTEDSLVPQKIQAFEGIRIKMVAAGAEHTAAVTEDGDLYGWGWGRYGNLGLGDRTDRLVPERVTSTGGEKMSMVACGWRHTISVSYSGALYTYGWSKYGQLGHGDLEDHLIPHKLEALSNSFISQISGGFRHTMALTSDGKLYGWGWNKFGQVGVGNNLDQCSPVQVRFPDDQKVVQVSCGWRHTLAVTERNNVFAWGRGTNGQLGIGESVDRNFPKIIEALSVDGASGQHIESSNIDPSSGKSWVSPAERYAVVPDETGLTDGSSKGNGGDISVPQTDVKRVRI
notes: UV … LOCUS 8 (UVR8), Arabidopsis thaliana; also called mUVR8; source: yeast strain EGY48, LexA fusion; in total protein extract (dimer/monomer assay) and yeast two-hybrid fusion
In the case of B2, the “stoichiometry N” value [2] is reported as 2.

B3: YFP-UVR8^W285F (proUVR8-YFP-UVR8^W285F/uvr8-6) (natural protein, Arabidopsis thaliana, UniProt Q9FN03 1-440, looked up)
chain: MAEDMAADEVTAPPRKVLIISAGASHSVALLSGDIVCSWGRGEDGQLGHGDAEDRPSPTQLSALDGHQIVSVTCGADHTVAYSQSGMEVYSWGWGDFGRLGHGNSSDLFTPLPIKALHGIRIKQIACGDSHCLAVTMEGEVQSWGRNQNGQLGLGDTEDSLVPQKIQAFEGIRIKMVAAGAEHTAAVTEDGDLYGWGWGRYGNLGLGDRTDRLVPERVTSTGGEKMSMVACGWRHTISVSYSGALYTYGWSKYGQLGHGDLEDHLIPHKLEALSNSFISQISGGFRHTMALTSDGKLYGWGWNKFGQVGVGNNLDQCSPVQVRFPDDQKVVQVSCGWRHTLAVTERNNVFAWGRGTNGQLGIGESVDRNFPKIIEALSVDGASGQHIESSNIDPSSGKSWVSPAERYAVVPDETGLTDGSSKGNGGDISVPQTDVKRVRI
notes: UV … LOCUS 8 (UVR8), Arabidopsis thaliana; The N-terminal place of YFP is read from the construct's name; source: transgenic Arabidopsis (native UVR8 promoter, uvr8-6 background), 4-day-old seedlings, in total protein extract; not shown: YFP, N-terminal, kept
B3 was tested, and the “stoichiometry N” value [3] was 2.

B4: YFP-UVR8^WT (proUVR8-YFP-UVR8/uvr8-6), Q9FN03 1-440 (natural protein)
chain: MAEDMAADEVTAPPRKVLIISAGASHSVALLSGDIVCSWGRGEDGQLGHGDAEDRPSPTQLSALDGHQIVSVTCGADHTVAYSQSGMEVYSWGWGDFGRLGHGNSSDLFTPLPIKALHGIRIKQIACGDSHCLAVTMEGEVQSWGRNQNGQLGLGDTEDSLVPQKIQAFEGIRIKMVAAGAEHTAAVTEDGDLYGWGWGRYGNLGLGDRTDRLVPERVTSTGGEKMSMVACGWRHTISVSYSGALYTYGWSKYGQLGHGDLEDHLIPHKLEALSNSFISQISGGWRHTMALTSDGKLYGWGWNKFGQVGVGNNLDQCSPVQVRFPDDQKVVQVSCGWRHTLAVTERNNVFAWGRGTNGQLGIGESVDRNFPKIIEALSVDGASGQHIESSNIDPSSGKSWVSPAERYAVVPDETGLTDGSSKGNGGDISVPQTDVKRVRI
In the case of B4, the stoichiometry N [4] is reported as 2.
